Reference: patent CN117836321A

Molecular target: VV B5单体蛋白 (Wyeth牛痘毒株的B5序列, C-末端AVI标签和HIS6标签) (牛痘病毒 Wyeth毒株)

B1: A048亲本抗B5 hIgG1 (antibody, V domains shown)
VH: QEQLEESGGGLVKPEGSLTLTCTASGFSFSSSYYMCWVRQAPGRGLEWIACIYTSSGSAYYANWAKGRFTISRTSSTTVTLQMTRLTAADTATYFCVRNAVGSSYYLYLWGPGTLVTVSS
VL: AQVLTQTPSPVSAAVGGTVTISCQASQSVAGNNYLSWYQQKPGQPPNLLIYSVSTLASGVPSRFKGSGSGTQFTLTISDLECDDAATYYCQGYYNDGIWAFGGGTEVVVK
  Kd: 9.5 nM
